Measured values from the supplement of paper PMC10724198.
± gives the standard deviation of the averaged measurements.

Test system: Saccharomyces cerevisiae
Test: protein stability index of tFT-peptide fusion (C-terminal peptide) (PSI (0-1 scale)); higher = more stable (slower turnover)
Conditions: temperature: 30 C
Protocol: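 MPS profiling in S. cerevisiae of the yeast C-terminome library: the last 12 aa of each annotated ORF are fused to the C-terminus of a sfGFP-mCherry timer, after a GGGS linker. Cells are FACS-sorted into 8 mCherry/sfGFP bins and deep-sequenced. PSI runs from 0 (unstable) to 1 (stable); wild type and das1Δ backgrounds, two technical replicates each.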

[1] = genetic background: das1 deletion

| Sequence | protein stability index [1] | protein stability index (genetic background: wild type) |
| --- | --- | --- |
| LSQWVSQMPFPM [LRO1 C-terminal 12 aa] | 0.79828 ± 0.00044 | 0.8015 ± 0.0025 |
| LTEMSAKISFED [AAD10 C-terminal 12 aa] | 0.717 ± 0.019 | 0.779 ± 0.011 |
| LTHQSLLATARK [KIP3 C-terminal 12 aa] | 0.6931 ± 0.0014 | 0.6879 ± 0.00097 |
| LTLIPILFGKLQ [YNL203C C-terminal 12 aa] | 0.6875 ± 0.0045 | 0.354 ± 0.0097 |
| LTSIWKTILFFK [YEL076C C-terminal 12 aa] | 0.41 ± 0.014 | 0.468 ± 0.061 |
| LTSYINVHLVYV [YNL285W C-terminal 12 aa] | 0.301 ± 0.016 | 0.325 ± 0.0042 |
| LVAEATKKKRHT [DJP1 C-terminal 12 aa] | 0.7115 ± 0.0067 | 0.6936 ± 0.0052 |
| LVKCASATIMLN [MIN3 C-terminal 12 aa] | 0.704 ± 0.021 | 0.483 ± 0.022 |
| LVKPKNWKKFRE [KRE2 C-terminal 12 aa] | 0.686 ± 0.017 | 0.733 ± 0.022 |
| LVSYFIKVQMKL [ECM3 C-terminal 12 aa] | 0.487 ± 0.0087 | 0.443 ± 0.025 |
| LVYATELIGSGS [ICE2 C-terminal 12 aa] | 0.7058 ± 0.0022 | 0.7 ± 0.073 |
| LYEHGIKKFDDL [JIP5 C-terminal 12 aa] | 0.674 ± 0.029 | 0.721 ± 0.039 |
| LYTFIVKKVKRD [GID12 C-terminal 12 aa] | 0.671 ± 0.045 | 0.685 ± 0.024 |
| MEALKEAREILG [MSH1 C-terminal 12 aa] | 0.7025 ± 0.0022 | 0.628 ± 0.019 |
| MFLSIQPQEARP [KAP120 C-terminal 12 aa] | 0.72 ± 0.0086 | 0.713 ± 0.011 |
| MFNASSDIFQRN [YML083C C-terminal 12 aa] | 0.703 ± 0.016 | 0.7014 ± 0.0067 |
| MKEKLKHSRKYM [SHY1 C-terminal 12 aa] | 0.7121 ± 0.0039 | 0.6685 ± 0.0027 |
| MKGYGFEVPSAN [COX17 C-terminal 12 aa] | 0.6984 ± 0.0041 | 0.663 ± 0.0067 |
| MKLFEENKKEEE [PET111 C-terminal 12 aa] | 0.722 ± 0.014 | 0.684 ± 0.035 |
| MLAKIHKLNNKA [RFC4 C-terminal 12 aa] | 0.7026 ± 0.0053 | 0.704 ± 0.066 |
| MLKFLAVVFFLL [YGL218W C-terminal 12 aa] | 0.392 ± 0.018 | 0.217 ± 0.011 |

| Sequence | protein stability index [1] | protein stability index (genetic background: wild type) |
| --- | --- | --- |
| MLNQQQQQQQQS [NRD1 C-terminal 12 aa] | 0.702 ± 0.016 | 0.739 ± 0.017 |
| MNNLFNPHSHDS [GTA1 C-terminal 12 aa] | 0.7104 ± 0.0014 | 0.722 ± 0.042 |
| MQHRGWSSLMSL [YJR146W C-terminal 12 aa] | 0.7031 ± 0.0016 | 0.6548 ± 0.0047 |
| MSSTKKVRFVML [RMD5 C-terminal 12 aa] | 0.696 ± 0.035 | 0.642 ± 0.035 |
| MTSLDICALGIK [RVS161 C-terminal 12 aa] | 0.689 ± 0.012 | 0.675 ± 0.046 |
| NADDPSYYHYLS [CUL3 C-terminal 12 aa] | 0.7059 ± 0.0024 | 0.68 ± 0.01 |
| NASEIYVKRKTG [DDL1 C-terminal 12 aa] | 0.708 ± 0.041 | 0.204 ± 0.03 |
| NASIFTVLSYCS [YEL020C-B C-terminal 12 aa] | 0.6702 ± 0.0016 | 0.668 ± 0.02 |
| NDDNFDDAQEQQ [SEC2 C-terminal 12 aa] | 0.6977 ± 0.0015 | 0.7002 ± 0.0057 |
| NDIFIPEQEHKQ [HPT1 C-terminal 12 aa] | 0.721 ± 0.011 | 0.674 ± 0.029 |
| NELSLRPATERI [YBL100W-A C-terminal 12 aa] | 0.6853 ± 0.0012 | 0.711 ± 0.015 |
| NEPEVQPEAAAN [PUS1 C-terminal 12 aa] | 0.679 ± 0.0086 | 0.69 ± 0.011 |
| NESLNDYFTGIK [YBP1 C-terminal 12 aa] | 0.706 ± 0.0084 | 0.772 ± 0.16 |
| NFAMLGLGPNWE [YUH1 C-terminal 12 aa] | 0.722 ± 0.0065 | 0.725 ± 0.057 |
| NFWNTGSAIFMQ [YHR069C-A C-terminal 12 aa] | 0.7347 ± 0.0017 | 0.719 ± 0.029 |
| NGMWQKPEPGVS [YIL067C C-terminal 12 aa] | 0.691 ± 0.012 | 0.706 ± 0.028 |
| NGRYVDTDFDSM [LCB5 C-terminal 12 aa] | 0.707 ± 0.02 | 0.659 ± 0.013 |
| NGTMKRGGVKNK [HPC2 C-terminal 12 aa] | 0.697 ± 0.02 | 0.6239 ± 0.0045 |
| NHPSNDSGNEKN [HCM1 C-terminal 12 aa] | 0.667 ± 0.025 | 0.656 ± 0.029 |
| NHSSSGNKHDEL [MPD1 C-terminal 12 aa] | 0.657 ± 0.0067 | 0.686 ± 0.035 |
| NIILNWIYPYQR [COX18 C-terminal 12 aa] | 0.703 ± 0.033 | 0.778 ± 0.076 |

| Sequence | protein stability index [1] | protein stability index (genetic background: wild type) |
| --- | --- | --- |
| NILFVMKEGRIY [YJL213W C-terminal 12 aa] | 0.681 ± 0.016 | 0.711 ± 0.056 |
| NIREARYEQQLK [CTF4 C-terminal 12 aa] | 0.733 ± 0.035 | 0.689 ± 0.03 |
| NIYNPMDEEENQ [TFB5 C-terminal 12 aa] | 0.718 ± 0.025 | 0.683 ± 0.032 |
| NLEATNNKKPPL [DAD4 C-terminal 12 aa] | 0.6963 ± 0.0043 | 0.6968 ± 0.00081 |
| NLMEMFTKRDRS [ROD1 C-terminal 12 aa] | 0.72 ± 0.022 | 0.713 ± 0.033 |
| NLNQHVKTHASL [COM2 C-terminal 12 aa] | 0.6752 ± 0.0042 | 0.681 ± 0.029 |
| NMRFFYRLYVKN [BMT6 C-terminal 12 aa] | 0.489 ± 0.015 | 0.45 ± 0.0084 |
| NNFCALYNLSNP [RPN14 C-terminal 12 aa] | 0.714 ± 0.022 | 0.6867 ± 0.0038 |
| NNTFLDVQAKSN [IMP1 C-terminal 12 aa] | 0.6944 ± 0.0068 | 0.712 ± 0.026 |
| NRFGVLPDDVEE [ECM1 C-terminal 12 aa] | 0.714 ± 0.024 | 0.704 ± 0.032 |
| NSAAFLLMSLKS [STB3 C-terminal 12 aa] | 0.674 ± 0.0086 | 0.679 ± 0.011 |
| NSAFSSASVTKP [YFR057W C-terminal 12 aa] | 0.711 ± 0.0094 | 0.682 ± 0.023 |
| NSALSSTSTLAI [RIB1 C-terminal 12 aa] | 0.6419 ± 0.0051 | 0.64 ± 0.04 |
| NSLTQKYGTNNV [AAD15 C-terminal 12 aa] | 0.698 ± 0.016 | 0.697 ± 0.029 |
| NSSGEFQLESLF [MRI1 C-terminal 12 aa] | 0.707 ± 0.023 | 0.698 ± 0.051 |
| NSVDWIYSWGKN [MIC12 C-terminal 12 aa] | 0.716 ± 0.03 | 0.74 ± 0.019 |
| NTAGQKPTEYHY [APA2 C-terminal 12 aa] | 0.7199 ± 0.0016 | 0.702 ± 0.019 |
| NTEQAYSQPFRY [NVJ1 C-terminal 12 aa] | 0.702 ± 0.021 | 0.722 ± 0.016 |
| NTESSDKGAKIQ [SIN3 C-terminal 12 aa] | 0.701 ± 0.035 | 0.664 ± 0.012 |
